From US20240409618A1

Molecular target: SARS-CoV-2 spike protein (isolate USA-WA1/2020) on pseudotyped virus (SARS-CoV-2 (USA-WA1/2020)) (UniProt P0DTC2)
Assay: cell-based or functional assay

Substance DMAb 2130_FcTM (antibody) has a serum potency (IC50), neutralization of WA1/2020 pseudovirus of 1 to 2 ng/mL.
